Data taken from the supplement of paper PMC12636428.

tested on: Saccharomyces cerevisiae; test: transcriptional activation domain activity (GFP:mCherry ratio, weighted mean of sorted bins, harmonized to initial dataset scale) (arbitrary fluorescence ratio units); higher = stronger transcriptional activation; details: beta-estradiol 1 µM; induction time 4 h
Method in brief: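 For this assay, yeast diploids with a GFP reporter carried barcoded protein tiles at URA3, each fused to an estradiol-inducible synthetic transcription factor. Induction was a 1:5 dilution into SC with 1 uM beta-estradiol for 4 hours at 30 °C, followed by sorting into 8 bins by GFP:mCherry ratio and barcode sequencing. Tiles under 50 reads were dropped, and activation activity was calculated as the read-weighted mean of bin median fluorescence, averaged across barcodes and linearly mapped onto the initial dataset scale.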

Sequence	transcriptional activation domain activity
FAEQGWQVVYYSWQWSLGVYIHYYLPSSVWAGYPHISLPVVIKVYYLMQISLY	37900
FAFLAPFFCFLFYMSMGFFRLFLFCFLGFGTFVVFNLILVPAFSLYLNHVYLL	68100
FAGAFKHFQRLGPVSQWDLLAKLPLIVFWILFTCCSLHFYLLFLFLFFIRWVS	55200
FAGIYSLVHFRKVWSSDHFILRKFMFMIEDLYQLYNLFFSWVAMGNFYLIFYI	67800
FAGLSYFVYDLHTMLSSIVIICVIVADFLYFGSILLPALWLECPYRVPLLFRP	71900
FAHIQPGLNVPIRAIMLCYLFNVAFGLLYLGPSVAFGAYISSCTILLNVSYAF	57100
FALFPEDPIILTIFGFFFSIPCFYYIVAKPQYISASRFVLLTYNLTCLYCYNL	32600
FALMLREPAIQDVMSLLITTMSKFMDWFDFLDLIVTYPEFPDPKWLTTLFLIL	23900
FALTFFWSLIGYWVPFFEAIHLFWWIGYRANYVPLMSADVAWRWFFKWDFPFF	62000
FANWLGLQKNGMGMRLFPFFIFSLFFLSFFSLFWGFSFFFSFSFFFGFSFFWF	23100
FAQRKSPFTQLLAFFLTRGCVIAGYQIILLIVPLLAGVSYTWVPLLFCLSRVY	62100
FARVLLNGWFRTFHKVVSTAECVAWLVLFLPYAIGVLLVVRCVLGFHDIPKPK	45500
FATFYVARDVFHVTPNELHSIMYLHISSAPHFVIFSTRVPGFWWENMPHWLFF	51500
FCFFLFLLSFSSCYFFFLLLFLPLTFSSLLFLPIYFFSSSSSSFFLPFLFVSL	43000
FCFYPFQKQWVMFSLTKDSLQLAHKFNFTRVPLPQRLRAVYLYARFAWRIFLL	33000
FCHIALFPSIGLKDTNYIPRAMDGVRFAHLESLHLQFNMYWLGPMYAWALHIL	52500
FCMLNHWYARSWGTYLWLGLLLTDLDVTYKYKKWLYAHPGTYYPLLTFAWLCV	63000
FCQISGFSLAVGIESSDIAVLLIALHSVMYIFSPLSGLYPYRQLAYLVYYLFP	49400
FCRALIHSQGEGPKSIYESSVISLTEAARAIINISRRSFTLHQTLTCRMWYFL	49900
FCRCLTGTGKSRMGVPVVSRLLCHFQGLLLRVMAHLFEDRPGSVRWMTIELLK	28500
FCVAAMIGEYGTTYYPTVTYWGELEVLGKIFWTLPLESFANSISGIIVDCYLI	63500

Sequence	transcriptional activation domain activity
FCYVVVLGRVLIRFGGYQVLTLWRSCMRRLPKLGDSIWSRVFLRCVSCMSLFL	62000
FDAALQHCRHGIMILNNSSRPEWMCQYLVPIFRRLSITPFFFGGVRPTRLPQL	68800
FDETIIQLRKTVLSCSTCCSIALKWFAEHEYALVGLLLRCLHMKVRSQIRAFL	44000
FDHPLIPNRRKTYMRFEGCNPDMGCTIILRGADIITLRRLKKVMRFVTFMVRN	70100
FDIITASLENSYQTTLTEKGSQVMEKNMDQLDSVHNLNDDDLQQLLEDLGNID	111000
FDLDDQYLANVVAEDRDASVLVQMSIIVQEGEHSHKSEQEPHISLLVLRRKRL	40200
FDNSGFQRLESLCACLAAIKSWMDIFLKFPPLEYAHLSFTFWAQLMKCIVVLY	61900
FDQDIPQDSSLNTSYISNLPYFGVTPSENFDETWFFDQAIGLGWLDSAQFTLG	142000
FDQYLFESISGLILRVQFIGGALPDSISIFEPTLFPPFTEILQGDIDQYIPYV	51300
FDRLIPEWAHAWKPVEGIWMLWWIKHQIFFALGVLQLLNQYWFFLILRILVRT	56300
FDTLLSFLLFSLSLIFFLSFLPLFCQRYFFSSFLNLVFLAFWLCCYCCCCSRG	31700
FDTRGAIYCSRPRMVMMCELMGWDAAFVLMPYTPRWRRHRRLFHQHFNEAVAN	80200
FDYDMFFRDSSKEGNNLFGEFLEDDDDDKKAANMSDDESSLIKNQLINEEPEL	41400
FDYMICPVHDLGIPAPLSVFLSTVLNRAVTTIPYAPYQTHLFFLSCFVSLVAP	40500
FEAKHADLIGSQKALYFQSTENIKNLLSMFTSYFSPIVDLLGHLHRVLTQVYH	46600
FEFQHTRLYMAFRELEGKLLPCLIEANGLDLVIATLLSVVEKVTEVSNIRLTS	35600
FEHKELKLCPYFNFTFCVYFRLSNPFAKQYHITPTCFCGQNVTINRTYREGKN	62800
FELHIPYHFVVVNTGKKLFQIWGLGKIDFARDFPFLQGARGSLTRTIIVILRN	52300
FFAFTFILMMACLVSGIGWCLLYFTCMYLLLIYYILSLFFYSPLASCNSFFFF	27200
FFCCSSLKRDMRFRSYLWAVWVGVVTGVKTSINLVSYRGLPPNNIIIKNLFFA	67700
FFCFVFLAHYTWLIKHGFQTHLLELGSFFSDLSLIICFFLLIMHLFCVTPFFR	68400

Sequence	transcriptional activation domain activity
FFCSLFVSPVTLFFIFYSYCKRSFAISLLLMITIYWSFLLGLTASILVYRIWL	57500
FFDDIPDTLESIRKHIDLFGNDFYLAHIYRTLRWWTKPTHVAVLGDLLGSQWI	70300
FFELLGLFVFFVLFLVGAAIASTFWGDLFWCHSFWQCRVLTVLVAFAWMCWVL	46900
FFEVGGVPRFQETVIAGGDNSVGRALSSPTVIYSGKHDGIALTIIRLLRPIWL	53400
FFFFFFFFFFFFFLFLLLSLFFPYLICHRLHLKTQLPHICFIFRLLAASCLST	46400
FFFFHFFFFWSSLRHIFQVLILGALGFLFFHFSFFIFHFSFFIFHFHFLFFFS	50400
FFFFLLFCFSFLYRLLSLYLFLFPFDFFFFSPWFCSNSRFYLRFVSFFPFFFF	50200
FFFFLLFFPLPFFPSSFPFFFLIHLLISSSLVFPFSSSSSSLTQVFWCLCFFF	57400
FFFFLLLLLLFFFLLRFLLLVYYYPNHPTHTYQPISFQFQPTHQIHHNALQHH	32200
FFFFPFLSLLFFFFPFLLSLLSSSLLLAAFSCFCFLPSLTPLPLSSSSSSPLF	34900
FFFFVIFSLFHLPFACIFRFFPNDLFACYLYSPFFFPIDFCPFALFPPFFLSF	59500
FFFSFFFFLFLFLFHLRFFPLTFVPFFIPCLLLLSSSLLLCCVVWYLFMRLFS	46700
FFFSGTALRGIYVGCLVFLVLLWFLHMFFILFTFPFFFVLVWVLLFFRELHFA	50600
FFFSSIFFIVFGGPGQLFFFFSILLFLYPISTFMRCIIHRVFLLFFAFFFFLF	29400
FFFVCYILQTLGMIAYMIMIVYDYYQNYLWFRGVAVVQSSTFIGQWYVFFIWF	57700
FFFVNGMWYNMAYIFGSWKLGWWELGAKIFVFQEVYETLLYLLTPFILPISFY	48600
FFGSLMGGALARPQDHWPELFAHPFWTTHPYFLPSASSDCVLLLIIFISLFFL	77800
FFGVCLGFYGFSFRSNFEPGAIIHDYILFMTPSFASLCARFHIQWLLFILFIH	46800
FFHVTIRCASQGCGIAFGILGFQNTNVFLAYLILGAEGYFTLVLCVFRFLISW	73400
FFHVTIRVASQACGIGFGILGFRNTNLFLAFLILGAEGYFSLVLCAFRFLISW	48000
FFHVTIRVASQGCGIGFAILGFGNLGLFLAFLILGAEGYFSLVLCTFRFVISW	78100

Sequence	transcriptional activation domain activity
FFHVTIRVASQSCGIAFGILGFSNFPVFLAYLILGAEGYFSLVLCAFRFLISW	75000
FFHVTIRVASQSCGIAFGILGFSNFRVFLAYLILGAEGYFTLVLCAFRFLISW	61100
FFHVTVRVASQGCGLAFGIHGFENTDVFLAYLILGAEGYFTLVLCTFRFLVSW	66200
FFLALSFKDPFRWLYQFNMDPSLCTEKYLGSNLCVNQNLITLGFMLLLDLVLF	67300
FFLALSFRDALAATSMMNLNNCMADPLLGKWVCQLLPSLTSILMFTVELVLFF	63800
FFLCTFTFFSFCLHLFLFLCVYRLYPTFCSVYPFFPFPILLLFIWLFMWFFIS	71800
FFLFLFFPFSFSFLFFSFFHFLPMLAHCYNGVTISVSLWFPLILASLFRPFLL	64300
FFLKVYLLNPLHMTRFADLLYQGAILNHVFQPYESHLQYLLQWMCDYNLYGCA	70700
FFLKVYLLNPLHMTRFADLLYQGAILNRVFQPYESHLQYLLQWMCDYNLYGCA	72900
FFLKVYLLNPMHMTRFADLLYQGAILNRVFQPYESHLQYLLQWMCDYNLYGCA	46700
FFLLFHIFHCLWGPRATILLFFSILLFFYPISTFMRCIIHRVFLLFFAFFFFL	22200
FFLLIALLPAWVVGFCIVFSIAMSCAAYDTLQVSLVATVSNDLFRNKISIWWV	42000
FFLLRNGFIFEDMARYRFYTCSQLWLWLIFLAVRSEIGLQRVYVFFVFMLFQV	49800
FFLRIAVEVLHIRIIWAIILVNVLFGFSYFMCAVLQCVPIPYIWKKYAANPPP	43200
FFLVLIYCPFPSFGPDLSLPFPSPFLSLHLLITILLSPLSPFYLFLFYFTSPS	84300
FFNILILQWRRIRCCKVVSTSLCLENTLGVAQLFVQFVLFTLIFILYMIYFPP	48300
FFPLGFLMRFLLFDLSLSCFLSFPLFLFSLPTTFLLYYYFPPHTIIMSCGSPI	43500
FFPSFSFSFSSFSFLLFISSSYSFFLFFPSSYSFFLFFFFYLIPYLLDFFPFL	50500
FFRRALNFLFDIALVPMIVCSSYAIFEVPSNVFLKRLRPSLWLSLLMLLWGIM	69000
FFRRLLLEIGWAHPLLVLCSATLLEPAHSRDHYVSKVFSHLSPEHAHVVGEIA	47500
